This note sets out measurements from US20230002497A1 (INSERM INSTITUT NATIONAL DE LA SANTE ET DE LA RECHERCHE …, published 2023).

The target of this experiment is T1, recombinant human IL-20Rb (human, UniProt Q6UXL0 30-233).
T1 construct: also called human recombinant IL-20RB; recombinant IL-20RB
T1 sequence: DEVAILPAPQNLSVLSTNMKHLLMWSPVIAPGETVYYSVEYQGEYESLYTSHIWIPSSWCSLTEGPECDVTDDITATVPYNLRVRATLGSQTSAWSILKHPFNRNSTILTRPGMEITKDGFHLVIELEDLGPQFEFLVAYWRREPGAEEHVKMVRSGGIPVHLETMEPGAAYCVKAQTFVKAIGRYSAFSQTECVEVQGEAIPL
The experiment can be described thus: ELISA on coated recombinant IL-20Rb (FIG. 8). (An ELISA detects its analyte on a solid surface through an enzyme-linked reagent.)

B1: B7 antibody (native B7 clone), human anti-IL-20Rb antibody (antibody, mouse IgG2a, V domains shown)
VH: EVQLVESGGSLVKPGGSLRLSCAASGFTFSNYSMNWVRQAPGKGLEWISYISGSSRYISYADFVKGRFTISRDNATNSLYLQMNSLRAEDTAVYYCVRSYYGMDVWGRGTLVTVSS
VL: QSVLTQPASVSGSPGQSITISCAGTSSDVGGNYYVSWYQQHPGKAPKLMIYGDSYRPSGVSNRFSGSKSGNTASLTISGLQAEDEADYYCSSYTYYSTRVFGGGTKLAVLG
Consider B1, for which the binding result is “binds”.
